Assay results from patent US20250009854A1.

Biological target: NL63 trimer (human coronavirus NL63)

Q: trACE2-Fc-WT (Fc fusion) was tested. Which IC50 did it give?
A: Its IC50 is 100 nM.

Q: Which IC50 does the source give for flACE2-Fc-WT (Fc fusion) here?
A: Its IC50 is 52.7 nM.
